The target in this experiment is NlpA-80R(scFv).

B1: M18.1 Hum IgG (antibody, V domains shown)
VH: EVQLVESGGGLVQPGGSLRLSCADSGYAFNSSWMNWVRQAPGKGLEWVGRIYPGDGDSNYNGKFEGRAIISADKSSSTAYLQMNSLRAEDTAVYYCARSGLLRYAMDYWGQGTLVTVSS
VL: DIQMTQSPSSLSASVGDRVTVTCRASQGIRNYLNWYQQKPGKAPKFLIYYTSRLLPGVPSRFSGSGSGTDYTLTINSLEQEDIATYYCQQGNTPPWTFGQGTKVEIKR
B1 yielded a M (FL1-Height) of 4.

Values taken from patent US20130303393A1.
